Measurements taken from PMC9478404, “Cyclin-dependent kinase-mediated phosphorylation and the negative regulatory domain of transcription factor B-Myb modulate its DNA binding” (The Journal of Biological Chemistry, 2022).

Molecular target: T1, B-Myb negative regulatory domain NRD^440–600 (human, UniProt P10244-1 440-600)
T1 construct: human B-Myb (MYBL2), negative regulatory domain, amino acids 440 to 600; source: E. coli, purified (Glutathione Sepharose, Q-sepharose, TEV cleavage, Superdex-75); not shown: GST, N-terminal, cleaved
T1 sequence (P10244 440-600): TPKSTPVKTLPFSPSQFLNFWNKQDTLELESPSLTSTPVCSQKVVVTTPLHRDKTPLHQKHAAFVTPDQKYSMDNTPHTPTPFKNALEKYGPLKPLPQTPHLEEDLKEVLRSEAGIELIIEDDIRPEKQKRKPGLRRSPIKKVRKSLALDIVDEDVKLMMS
Test: ITC; DBD (500 μM) titrated into NRD (50 μM) at 19 °C; 150 mM NaCl, 20 mM Tris, 1 mM BME (pH 8); MicroCal VP-ITC; mean of three technical replicates
Conditions: both partners purified

B1: B-Myb DNA-binding domain (B-Myb^34–183) (domain or fragment)
chain: not shown
notes: Limits 34-183 are printed for 'the DBD alone' in the FP experiment; also called DBD; B-Myb DBD; source: E. coli, purified (Glutathione Sepharose, Q-sepharose, TEV cleavage, Superdex-75); not shown: GST, N-terminal, cleaved
B1 showed a Kd of 4.5 µM.
